Laboratory results: the RNAGym collection of RNA variant scans (doi:10.1021/acssynbio.7b00057)

B1: Pistol ribozyme (parent)
chain: GGGUCGUUGUUCCAUAAUCGCGUGGAUAUGGCACGCAAGUUUCUACCGGGCACCGUAAAUGUCCGACUGGAGCCGUUCGGGCGGCUAUAAACAGACCUCAGGCCCGAAGCGUGGCGGCACCUGCCGCCGGUGGUAAAAAAGAUCGGAAGAGCACACGUCU

Variants of: B1
Test: aptazyme ON/OFF ratio, guanine; higher = stronger switching; co-transcriptional cleavage with and without guanine

Variant	aptazyme ON/OFF ratio
GGGUCGGGAGCUCAUAAUCGCGUGGAUAUGGCACGCAAGUUUCUACCGGGCACCGUAAAUGUCCGACUGGAGCCGUUCGGGCGGCUAUAAACAGACCUCAGGCCCGAAGCGUGGCGGCACCUGCCGCCGGUGGUAAAAAAGAUCGGAAGAGCACACGUCU [U7G U8G G9A U10G U11C C12U]	1.27
GGGUCGGGAGCGCAUAAUCGCGUGGAUAUGGCACGCAAGUUUCUACCGGGCACCGUAAAUGUCCGACUGGAGCCGUUCGGGCGGCUAUAAACAGACCUCAGGCCCGAAGCGUGGCGGCACCUGCCGCCGGUGGUAAAAAAGAUCGGAAGAGCACACGUCU [U7G U8G G9A U10G U11C C12G]	1.26
GGGUCGGGAGGCGAUAAUCGCGUGGAUAUGGCACGCAAGUUUCUACCGGGCACCGUAAAUGUCCGACUGGAGCCGUUCGGGCGGCUAUAAACAGACCUCAGGCCCGAAGCGUGGCGGCACCUGCCGCCGGUGGUAAAAAAGAUCGGAAGAGCACACGUCU [U7G U8G G9A U10G U11G C13G]	1.41
GGGUCGGGAGGCAAUAAUCGCGUGGAUAUGGCACGCAAGUUUCUACCGGGCACCGUAAAUGUCCGACUGGAGCCGUUCGGGCGGCUAUAAACAGACCUCAGGCCCGAAGCGUGGCGGCACCUGCCGCCGGUGGUAAAAAAGAUCGGAAGAGCACACGUCU [U7G U8G G9A U10G U11G C13A]	1.13
GGGUCGGGAGGCUAUAAUCGCGUGGAUAUGGCACGCAAGUUUCUACCGGGCACCGUAAAUGUCCGACUGGAGCCGUUCGGGCGGCUAUAAACAGACCUCAGGCCCGAAGCGUGGCGGCACCUGCCGCCGGUGGUAAAAAAGAUCGGAAGAGCACACGUCU [U7G U8G G9A U10G U11G C13U]	1.22
GGGUCGGGAUAAGAUAAUCGCGUGGAUAUGGCACGCAAGUUUCUACCGGGCACCGUAAAUGUCCGACUGGAGCCGUUCGGGCGGCUAUAAACAGACCUCAGGCCCGAAGCGUGGCGGCACCUGCCGCCGGUGGUAAAAAAGAUCGGAAGAGCACACGUCU [U7G U8G G9A U11A C12A C13G]	1.14
GGGUCGGGAUAAUAUAAUCGCGUGGAUAUGGCACGCAAGUUUCUACCGGGCACCGUAAAUGUCCGACUGGAGCCGUUCGGGCGGCUAUAAACAGACCUCAGGCCCGAAGCGUGGCGGCACCUGCCGCCGGUGGUAAAAAAGAUCGGAAGAGCACACGUCU [U7G U8G G9A U11A C12A C13U]	1.38
GGGUCGGGAUAAAAUAAUCGCGUGGAUAUGGCACGCAAGUUUCUACCGGGCACCGUAAAUGUCCGACUGGAGCCGUUCGGGCGGCUAUAAACAGACCUCAGGCCCGAAGCGUGGCGGCACCUGCCGCCGGUGGUAAAAAAGAUCGGAAGAGCACACGUCU [U7G U8G G9A U11A C12A C13A]	1.23
GGGUCGGGAGCCAAUAAUCGCGUGGAUAUGGCACGCAAGUUUCUACCGGGCACCGUAAAUGUCCGACUGGAGCCGUUCGGGCGGCUAUAAACAGACCUCAGGCCCGAAGCGUGGCGGCACCUGCCGCCGGUGGUAAAAAAGAUCGGAAGAGCACACGUCU [U7G U8G G9A U10G U11C C13A]	1.15
GGGUCGGGAGCCUAUAAUCGCGUGGAUAUGGCACGCAAGUUUCUACCGGGCACCGUAAAUGUCCGACUGGAGCCGUUCGGGCGGCUAUAAACAGACCUCAGGCCCGAAGCGUGGCGGCACCUGCCGCCGGUGGUAAAAAAGAUCGGAAGAGCACACGUCU [U7G U8G G9A U10G U11C C13U]	1.08
GGGUCGGGAGCCGAUAAUCGCGUGGAUAUGGCACGCAAGUUUCUACCGGGCACCGUAAAUGUCCGACUGGAGCCGUUCGGGCGGCUAUAAACAGACCUCAGGCCCGAAGCGUGGCGGCACCUGCCGCCGGUGGUAAAAAAGAUCGGAAGAGCACACGUCU [U7G U8G G9A U10G U11C C13G]	1.08
GGGUCGGGAGGUAAUAAUCGCGUGGAUAUGGCACGCAAGUUUCUACCGGGCACCGUAAAUGUCCGACUGGAGCCGUUCGGGCGGCUAUAAACAGACCUCAGGCCCGAAGCGUGGCGGCACCUGCCGCCGGUGGUAAAAAAGAUCGGAAGAGCACACGUCU [U7G U8G G9A U10G U11G C12U C13A]	1.71
GGGUCGGGAGGUGAUAAUCGCGUGGAUAUGGCACGCAAGUUUCUACCGGGCACCGUAAAUGUCCGACUGGAGCCGUUCGGGCGGCUAUAAACAGACCUCAGGCCCGAAGCGUGGCGGCACCUGCCGCCGGUGGUAAAAAAGAUCGGAAGAGCACACGUCU [U7G U8G G9A U10G U11G C12U C13G]	1.27
GGGUCGGGAGGUUAUAAUCGCGUGGAUAUGGCACGCAAGUUUCUACCGGGCACCGUAAAUGUCCGACUGGAGCCGUUCGGGCGGCUAUAAACAGACCUCAGGCCCGAAGCGUGGCGGCACCUGCCGCCGGUGGUAAAAAAGAUCGGAAGAGCACACGUCU [U7G U8G G9A U10G U11G C12U C13U]	1.11
GGGUCGGGAUACCAUAAUCGCGUGGAUAUGGCACGCAAGUUUCUACCGGGCACCGUAAAUGUCCGACUGGAGCCGUUCGGGCGGCUAUAAACAGACCUCAGGCCCGAAGCGUGGCGGCACCUGCCGCCGGUGGUAAAAAAGAUCGGAAGAGCACACGUCU [U7G U8G G9A U11A]	2.46
GGGUCGGGAGCGAAUAAUCGCGUGGAUAUGGCACGCAAGUUUCUACCGGGCACCGUAAAUGUCCGACUGGAGCCGUUCGGGCGGCUAUAAACAGACCUCAGGCCCGAAGCGUGGCGGCACCUGCCGCCGGUGGUAAAAAAGAUCGGAAGAGCACACGUCU [U7G U8G G9A U10G U11C C12G C13A]	1.16
GGGUCGGGAGCGUAUAAUCGCGUGGAUAUGGCACGCAAGUUUCUACCGGGCACCGUAAAUGUCCGACUGGAGCCGUUCGGGCGGCUAUAAACAGACCUCAGGCCCGAAGCGUGGCGGCACCUGCCGCCGGUGGUAAAAAAGAUCGGAAGAGCACACGUCU [U7G U8G G9A U10G U11C C12G C13U]	1.28
GGGUCGGGAGCGGAUAAUCGCGUGGAUAUGGCACGCAAGUUUCUACCGGGCACCGUAAAUGUCCGACUGGAGCCGUUCGGGCGGCUAUAAACAGACCUCAGGCCCGAAGCGUGGCGGCACCUGCCGCCGGUGGUAAAAAAGAUCGGAAGAGCACACGUCU [U7G U8G G9A U10G U11C C12G C13G]	1.13
